Experimental data from the supplement of paper PMC9112550, “Optimization of the antimicrobial peptide Bac7 by deep mutational scanning” (BMC Biology, 2022).

Test system: Escherichia coli TOP10
Assay: shrunken log2 fold change of peptide-encoding DNA abundance (4.5 h post-induction vs induction); higher = less antimicrobial activity (less host growth inhibition)
Details: time post-induction: 4.5 h; library: site-saturation at positions 5, 18, 19, 20
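Also: peptides expressed intracellularly from a pBAD plasmid library in pooled LB shake-flask culture, induced with 0.3% L-arabinose, DNA abundance read by NGS, three biological replicates, DESeq2 with apeglm shrinkage.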

Row | Sequence | shrunken log2 fold change
1 | RRIRMRPPRLPRPRPRPKYFPRP | -0.186
2 | RRIRMRPPRLPRPRPRPLAWPRP | 0.219
3 | RRIRMRPPRLPRPRPRPLCIPRP | 0.21
4 | RRIRMRPPRLPRPRPRPLDQPRP | 1.12
5 | RRIRMRPPRLPRPRPRPLERPRP | 0.00972
6 | RRIRMRPPRLPRPRPRPLESPRP | 2.66
7 | RRIRMRPPRLPRPRPRPLFMPRP | 0.0387
8 | RRIRMRPPRLPRPRPRPLGRPRP | 0.723
9 | RRIRMRPPRLPRPRPRPLHCPRP | 0.254
10 | RRIRMRPPRLPRPRPRPLIVPRP | 1.71
11 | RRIRMRPPRLPRPRPRPLKYPRP | -0.0456
12 | RRIRMRPPRLPRPRPRPLNWPRP | 0.225
13 | RRIRMRPPRLPRPRPRPLRIPRP | 1.06
14 | RRIRMRPPRLPRPRPRPLSGPRP | 0.815
15 | RRIRMRPPRLPRPRPRPLTCPRP | -0.0821
16 | RRIRMRPPRLPRPRPRPLWFPRP | -0.147
17 | RRIRMRPPRLPRPRPRPLWIPRP | -0.00647
18 | RRIRMRPPRLPRPRPRPLWVPRP | 0.0224
19 | RRIRMRPPRLPRPRPRPLYKPRP | -0.134
20 | RRIRMRPPRLPRPRPRPLYVPRP | -0.111
21 | RRIRMRPPRLPRPRPRPMAAPRP | 0.117
22 | RRIRMRPPRLPRPRPRPMDTPRP | -0.00187
23 | RRIRMRPPRLPRPRPRPMFEPRP | 0.155
24 | RRIRMRPPRLPRPRPRPMFPPRP | 0.164
25 | RRIRMRPPRLPRPRPRPMGFPRP | -0.0135

Row | Sequence | shrunken log2 fold change
26 | RRIRMRPPRLPRPRPRPMIEPRP | 0.17
27 | RRIRMRPPRLPRPRPRPMIHPRP | -0.106
28 | RRIRMRPPRLPRPRPRPMKRPRP | 0.573
29 | RRIRMRPPRLPRPRPRPMKVPRP | 0.0398
30 | RRIRMRPPRLPRPRPRPMMFPRP | 0.251
31 | RRIRMRPPRLPRPRPRPMRVPRP | 0.035
32 | RRIRMRPPRLPRPRPRPMSVPRP | -0.00306
33 | RRIRMRPPRLPRPRPRPMVRPRP | 0.0591
34 | RRIRMRPPRLPRPRPRPMWCPRP | 0.283
35 | RRIRMRPPRLPRPRPRPMWNPRP | 0.0246
36 | RRIRMRPPRLPRPRPRPNAKPRP | 0.225
37 | RRIRMRPPRLPRPRPRPNCLPRP | -0.00154
38 | RRIRMRPPRLPRPRPRPNENPRP | 0.314
39 | RRIRMRPPRLPRPRPRPNFNPRP | -0.23
40 | RRIRMRPPRLPRPRPRPNFTPRP | -0.099
41 | RRIRMRPPRLPRPRPRPNGHPRP | -0.00897
42 | RRIRMRPPRLPRPRPRPNHTPRP | -0.213
43 | RRIRMRPPRLPRPRPRPNIFPRP | -0.0848
44 | RRIRMRPPRLPRPRPRPNKHPRP | -0.158
45 | RRIRMRPPRLPRPRPRPNKIPRP | 0.0176
46 | RRIRMRPPRLPRPRPRPNLRPRP | -0.0219
47 | RRIRMRPPRLPRPRPRPNPGPRP | 0.0378
48 | RRIRMRPPRLPRPRPRPNPYPRP | -0.0714
49 | RRIRMRPPRLPRPRPRPNRAPRP | 0.239
50 | RRIRMRPPRLPRPRPRPNRHPRP | 0.0213

Row | Sequence | shrunken log2 fold change
51 | RRIRMRPPRLPRPRPRPNRRPRP | 0.179
52 | RRIRMRPPRLPRPRPRPNTMPRP | 0.0324
53 | RRIRMRPPRLPRPRPRPNTPPRP | 0.188
54 | RRIRMRPPRLPRPRPRPNVMPRP | -0.108
55 | RRIRMRPPRLPRPRPRPNWEPRP | 0.0757
56 | RRIRMRPPRLPRPRPRPNYMPRP | 1.06
57 | RRIRMRPPRLPRPRPRPPAIPRP | 0.911
58 | RRIRMRPPRLPRPRPRPPCAPRP | 2.14
59 | RRIRMRPPRLPRPRPRPPCMPRP | 0.181
60 | RRIRMRPPRLPRPRPRPPEKPRP | 2.49
61 | RRIRMRPPRLPRPRPRPPFRPRP | 0.693
62 | RRIRMRPPRLPRPRPRPPGLPRP | 0.702
63 | RRIRMRPPRLPRPRPRPPGTPRP | 1.05
64 | RRIRMRPPRLPRPRPRPPGWPRP | 1.25
65 | RRIRMRPPRLPRPRPRPPHKPRP | 0.585
66 | RRIRMRPPRLPRPRPRPPIIPRP | -0.306
67 | RRIRMRPPRLPRPRPRPPIVPRP | -0.112
68 | RRIRMRPPRLPRPRPRPPIYPRP | -0.0765
69 | RRIRMRPPRLPRPRPRPPKQPRP | 0.742
70 | RRIRMRPPRLPRPRPRPPKRPRP | 1.05
71 | RRIRMRPPRLPRPRPRPPKSPRP | 0.478
72 | RRIRMRPPRLPRPRPRPPMNPRP | 0.315
73 | RRIRMRPPRLPRPRPRPPPNPRP | 1.77
74 | RRIRMRPPRLPRPRPRPPQIPRP | 0.468
75 | RRIRMRPPRLPRPRPRPPQTPRP | 0.424

Row | Sequence | shrunken log2 fold change
76 | RRIRMRPPRLPRPRPRPPTCPRP | 0.183
77 | RRIRMRPPRLPRPRPRPPTTPRP | 0.991
78 | RRIRMRPPRLPRPRPRPPVIPRP | 0.312
79 | RRIRMRPPRLPRPRPRPPVVPRP | 0.753
80 | RRIRMRPPRLPRPRPRPPYQPRP | 0.0406
81 | RRIRMRPPRLPRPRPRPQAQPRP | 0.299
82 | RRIRMRPPRLPRPRPRPQCRPRP | 0.253
83 | RRIRMRPPRLPRPRPRPQEVPRP | 0.126
84 | RRIRMRPPRLPRPRPRPQFIPRP | -0.0965
85 | RRIRMRPPRLPRPRPRPQFLPRP | -0.106
86 | RRIRMRPPRLPRPRPRPQGEPRP | -0.0117
87 | RRIRMRPPRLPRPRPRPQIAPRP | 0.208
88 | RRIRMRPPRLPRPRPRPQIIPRP | 0.022
89 | RRIRMRPPRLPRPRPRPQIRPRP | -0.0442
90 | RRIRMRPPRLPRPRPRPQLHPRP | 0.546
91 | RRIRMRPPRLPRPRPRPQLTPRP | 0.743
92 | RRIRMRPPRLPRPRPRPQMCPRP | -0.239
93 | RRIRMRPPRLPRPRPRPQMRPRP | 1
94 | RRIRMRPPRLPRPRPRPQMWPRP | 0.635
95 | RRIRMRPPRLPRPRPRPQMYPRP | -0.24
96 | RRIRMRPPRLPRPRPRPQPTPRP | 0.868
97 | RRIRMRPPRLPRPRPRPQPVPRP | 0.622
98 | RRIRMRPPRLPRPRPRPQQCPRP | 0.143
99 | RRIRMRPPRLPRPRPRPQQFPRP | 0.359
100 | RRIRMRPPRLPRPRPRPQRYPRP | -0.00185

Row | Sequence | shrunken log2 fold change
101 | RRIRMRPPRLPRPRPRPQSSPRP | -0.0185
102 | RRIRMRPPRLPRPRPRPQTHPRP | 0.318
103 | RRIRMRPPRLPRPRPRPQTPPRP | 2.18
104 | RRIRMRPPRLPRPRPRPQVIPRP | -0.0579
105 | RRIRMRPPRLPRPRPRPQWCPRP | -0.0474
106 | RRIRMRPPRLPRPRPRPRASPRP | 1.08
107 | RRIRMRPPRLPRPRPRPRDIPRP | -0.0288
108 | RRIRMRPPRLPRPRPRPRDLPRP | 0.266
109 | RRIRMRPPRLPRPRPRPREPPRP | 0.447
110 | RRIRMRPPRLPRPRPRPRFTPRP | 0.323
111 | RRIRMRPPRLPRPRPRPRGCPRP | 1.08
112 | RRIRMRPPRLPRPRPRPRKFPRP | 0.247
113 | RRIRMRPPRLPRPRPRPRLLPRP | 0.421
114 | RRIRMRPPRLPRPRPRPRLSPRP | 0.494
115 | RRIRMRPPRLPRPRPRPRNQPRP | 0.484
116 | RRIRMRPPRLPRPRPRPRPCPRP | 0.586
117 | RRIRMRPPRLPRPRPRPRQLPRP | 0.691
118 | RRIRMRPPRLPRPRPRPRRCPRP | 1.08
119 | RRIRMRPPRLPRPRPRPRRIPRP | 0.767
120 | RRIRMRPPRLPRPRPRPRRPPRP | 1.16
121 | RRIRMRPPRLPRPRPRPRRRPRP | 1.53
122 | RRIRMRPPRLPRPRPRPRSWPRP | 1.42
123 | RRIRMRPPRLPRPRPRPRWGPRP | 0.279
124 | RRIRMRPPRLPRPRPRPRYPPRP | 0.0438
125 | RRIRMRPPRLPRPRPRPRYQPRP | -0.0321

Row | Sequence | shrunken log2 fold change
126 | RRIRMRPPRLPRPRPRPSAYPRP | 0.319
127 | RRIRMRPPRLPRPRPRPSCEPRP | 0.541
128 | RRIRMRPPRLPRPRPRPSDDPRP | 1.89
129 | RRIRMRPPRLPRPRPRPSFGPRP | 0.0121
130 | RRIRMRPPRLPRPRPRPSFLPRP | -0.121
131 | RRIRMRPPRLPRPRPRPSFVPRP | -0.0144
132 | RRIRMRPPRLPRPRPRPSGAPRP | 1.13
133 | RRIRMRPPRLPRPRPRPSGSPRP | 0.133
134 | RRIRMRPPRLPRPRPRPSIAPRP | -0.0688
135 | RRIRMRPPRLPRPRPRPSIDPRP | 0.789
136 | RRIRMRPPRLPRPRPRPSKIPRP | -0.0332
137 | RRIRMRPPRLPRPRPRPSKVPRP | 0.167
138 | RRIRMRPPRLPRPRPRPSLRPRP | 0.626
139 | RRIRMRPPRLPRPRPRPSMCPRP | 0.0724
140 | RRIRMRPPRLPRPRPRPSMSPRP | -0.024
141 | RRIRMRPPRLPRPRPRPSPRPRP | 1.05
142 | RRIRMRPPRLPRPRPRPSRMPRP | 0.454
143 | RRIRMRPPRLPRPRPRPSSFPRP | -0.0557
144 | RRIRMRPPRLPRPRPRPSSLPRP | -0.156
145 | RRIRMRPPRLPRPRPRPSSNPRP | -0.142
146 | RRIRMRPPRLPRPRPRPSTDPRP | 0.949
147 | RRIRMRPPRLPRPRPRPSVYPRP | -0.335
148 | RRIRMRPPRLPRPRPRPSWRPRP | 0.194
149 | RRIRMRPPRLPRPRPRPSYFPRP | -0.293
150 | RRIRMRPPRLPRPRPRPTCNPRP | -0.0778
